Reference: PMC9067936, “SHIP164 is a chorein motif lipid transfer protein that controls endosome–Golgi membrane traffic” (The Journal of Cell Biology, 2022)

Target: the molecule itself
Assay: negative-stain electron microscopy; 2D class averages of negatively stained purified protein (50 nM, 2% uranyl acetate, carbon-coated copper grids); MBP densities used to locate the N-termini

B1: 3XFLAG-SHIP164_(Δ901–1099) (natural protein)
chain: not shown
notes: SHIP164 (UHRF1BP1L), human, codon-optimised ORF from Genscript; construct lacking the predicted unstructured segment, residues 901-1099; Seen as a tail-to-tail dimer in vitro; also called 3×FLAG-SHIP164_(Δ901–1099); UHRF1BP1L; source: Expi293F, transfected, purified (anti-FLAG M2 resin, gel filtration on Superdex 200); not shown: 3xFLAG, N-terminal, kept
- stoichiometry N: 2

B2: MBP-SHIP164 fusion (MBP fused to the N-terminus of SHIP164_(Δ901–1099)) (natural protein)
chain: not shown
notes: SHIP164 (UHRF1BP1L), human, codon-optimised ORF; lacks residues 901-1099; Probably made in Expi293F and purified as m1, possibly with a 3xFLAG tag as well; not shown: MBP (E. coli MBP residues 27–392 and two additional alanines), N-terminal, kept
- stoichiometry N: 2
